Assay results reported in PMC3954831, “Protection of Cardiomyocytes from the Hypoxia-Mediated Injury by a Peptide Targeting the Activator of G-Protein Signaling 8” (PLoS ONE, 2014).

Molecular target: T1, Recombinant human Gβ1γ2 (human, UniProt P62873 1-340; P59768 1-71)
T1 construct: G-protein beta 1 subunit, human, recombinant; G-protein gamma 2 subunit, human, recombinant; Preformed heterodimer bought as such; detected by an anti-Gβ antibody; also called Gβγ; purified Gβγ; source: bought: Calbiochem-Merck Millipore (recombinant)
Experiment: pull-down; competition: GST-AGS8-C (100 nM) incubated with recombinant human Gβ1γ2 (10 nM) in the presence of rising doses of peptide CP1 or CP9, adsorbed to a glutathione matrix; immunoblot with densitometry, n = 6
Settings: both partners purified

B1: AGS8-peptide CP1 (peptide)
peptide: APRNITVVAMEGCHSFVIVDWNKAIPGDV
notes: About 97% HPLC purity; source: synthetic peptide (Invitrogen)
IC50: 6.73 µM

B2: AGS8-peptide CP9 (peptide)
peptide: SFVIVDWNKAIPGDVVTGYLVYSASYEDFI
notes: as for B1
IC50: 2.77 µM
